The series concerns the molecule itself. Description: AUC.

B1: R135_50, a variant of Mimivirus R135 lacking the first 50 amino acids (domain or fragment)
chain: TKDNLTGDIVIIGAGAAGSLLAHYLARFSNMKIILLEAGHSHFNDPVVTDPMGFFGKYNPPNENISMSQNPSYSWQGAQEPNTGAYGNRPIIAHGMGFGGSTMINRLNLVVGGRTVFDNDWPVGWKYDDVKNYFRRVLVDINPVRDNTKASITSVALDALRIIAEQQIASGEPVDFLLNKATGNVPNVEKTTPDAVPLNLNDYEGVNSVVAFSSFYMGVNQLSDGNYIRKYAGNTYLNRNYVDENGRGIGKFSGLRVVSDAVVDRIIFKGNRAVGVNYIDREGIMHYVKVNKEVVVTSGAFYTPTILQRSGIGDFTYLSSIGVKNLVYNNPLVGTGLKNHYSPVTITRVHGEPSEVSRFLSNMAANPTNMGFKGLAELGFHRLDPNKPANANTVTYRKYQLMMTAGVGIPAEQQYLSGLSPSSNNLFTLIADDIRFAPEGYIKIGTPNIPRDVPKIFFNTFVTYTPTSAPADQQWPIAQKTLAPLISALLGYDIIYQTLMSMNQTARDSGFQVSLEMVYPLNDLIYKLHNGLATYGANWWHYFVPTLVGDDTPAGREFADTLSKLSYYPRVGAHLDSHQGCSCSIGRTVDSNLKVIGTQNVRVADLSAAAFPPGGNTWATASMIGARAVDLILGFPYLRDLPVNDVPILNVN
For B1, the stoichiometry N – broadly, a count of units in the complex or per binding partner – was determined as 2.

These data come from PMC4456301 (Structure (London, England : 1993), 2015).
